Test results from publication PMC11758000.

Target: FGFR3-TACC3 RT112 (fibroblast growth factor receptor 3 fused with transforming acidic coiled-coil-containing protein 3), 5F1Y variant, in SMA lipid particles
Assay: mass photometry; RT112-SMALPs at 500 nM incubated on ice for 30 min with FGF1 at a 10x molar ratio, drop dilution into 50 mM HEPES, 500 mM NaCl, 0.5% v/v glycerol, 1 mM TCEP, pH 7.9, room temperature; compared with ligand-free RT112

stoichiometry N: 2
Substance: FGFR3-TACC3 RT112 (fibroblast growth factor receptor 3 fused with transforming acidic coiled-coil-containing protein 3), 5F1Y variant, in SMA lipid particles
